Assay results as given in publication doi:10.1101/130245 (bioRxiv, 2017).
Where “and” joins values, the source holds several entries; their conditions need not be identical. Equal values may be shown once.

Tests used:
SEC = target: the molecule itself; experiment: SEC
crystal structure = target: the molecule itself; experiment: crystal structure

| Protein | stoichiometry N (SEC) | binding result (crystal structure) |
| --- | --- | --- |
| 14-3-3/HSPB6 protein-phosphopeptide chimera CH1 (14-3-3σΔC Clu3 fused through a GSGS linker to the HSPB6 phosphopeptide) (other, phosphoserine at the Ser that is Ser16 of HSPB6 (RRApSAPL)) GPHMERASLIQKAKLAEQAERYEDMAAFMKGAVEKGEELSCEERNLLSVAYKNVVGGQRAAWRVLSSIEQKSNEEGSAAAGPEVREYREKVETELQGVCDTVLGLLDSHLIKEAGDAESRVFYLKMKGDYYRYLAEVATGDDKKRIIDSARSAYQEAMDISKKEMPPTNPIRLGLALNFSVFHYEIANSPEEAISLAKTTFDEAMADLHTLSEDSYKDSTLIMQLLRDNLTLWTGSGSLRRASAPL | 2 and 4 |  |
| untagged C-terminally truncated human 14-3-3σ (14-3-3σΔC: residues 1-231) (domain or fragment) MERASLIQKAKLAEQAERYEDMAAFMKGAVEKGEELSCEERNLLSVAYKNVVGGQRAAWRVLSSIEQKSNEEGSEEKGPEVREYREKVETELQGVCDTVLGLLDSHLIKEAGDAESRVFYLKMKGDYYRYLAEVATGDDKKRIIDSARSAYQEAMDISKKEMPPTNPIRLGLALNFSVFHYEIANSPEEAISLAKTTFDEAMADLHTLSEDSYKDSTLIMQLLRDNLTLWT | 2 |  |
| chimera CH2 of 14-3-3σΔC Clu3 with the Gli phosphopeptide (other, phosphoserine at the Ser that is Ser640 of Gli (RRApSDPAQA)) GPHMERASLIQKAKLAEQAERYEDMAAFMKGAVEKGEELSCEERNLLSVAYKNVVGGQRAAWRVLSSIEQKSNEEGSAAAGPEVREYREKVETELQGVCDTVLGLLDSHLIKEAGDAESRVFYLKMKGDYYRYLAEVATGDDKKRIIDSARSAYQEAMDISKKEMPPTNPIRLGLALNFSVFHYEIANSPEEAISLAKTTFDEAMADLHTLSEDSYKDSTLIMQLLRDNLTLWTGSGSLRRASDPAQA |  | binds |
